Measurements from patent publication US20070020327A1.

How the values were obtained:
[1] = target: HLA-A*1101 (human); assay: competition with 125I-labelled standard peptide for purified HLA, gel filtration; settings: scale: ratio
[2] = target: HLA-A*6801 (human); assay: as above; settings: scale: ratio
[3] = target: HLA-A*0301 (human); assay: as above; settings: scale: ratio
[4] = target: HLA-A*3301 (human); assay: as above; settings: scale: ratio
[5] = target: HLA-B*0702 (human); assay: competition with 125I-labeled standard peptide (1075.23 [..]) for purified HLA-B*0702, gel filtration
[6] = target: HLA-A*0301 (human); assay: competition with 125I-labelled standard peptide for purified HLA-A*0301, gel filtration; relative binding
[7] = target: HLA-A*0301 (human); assay: competition with 125I-labelled probe peptide for purified HLA-A*0301, gel filtration
[8] = target: HLA-A*1101 (human); assay: inhibition of 125I-labeled probe peptide binding to purified HLA-A*1101, gel filtration; relative to standard peptide 940.06
[9] = target: HLA-A*1101 (human); assay: competition with a 125I-labelled probe peptide for purified HLA-A*1101, gel filtration; value relative to the standard peptide
[10] = target: HLA-A*1101 (human); assay: competition with 125I-labeled standard peptide for purified HLA-A*1101, gel filtration; relative binding
[11] = target: HLA-A*1101 (human); assay: competition with 125I-labelled standard peptide 940.06 ([..], IC50 […] nM) for purified HLA-A*1101; gel filtration
[12] = target: HLA-A*0206 (human); assay: competition binding to purified HLA, 125I-labelled standard peptide, gel filtration; ratio = IC50 standard / IC50 test peptide; settings: remark: other sources report otherwise
[13] = target: HLA-A*0202 (human); assay: as above; settings: remark: other sources report otherwise
[14] = target: HLA-A*0203 (human); assay: as above
[15] = target: HLA-A*0201 (human); assay: as above
[16] = target: HLA-A*6802 (human); assay: competition for purified HLA with 125I-labelled standard peptide 1072.34 [..] as competitor, gel filtration; settings: scale: ratio
[17] = target: HLA-A*0202 (human); assay: competition for purified HLA with 125I-labelled standard peptide 941.01 [..] as competitor, gel filtration; settings: scale: ratio
[18] = target: HLA-A*0203 (human); assay: as above; settings: scale: ratio
[19] = target: HLA-A*0201 (human); assay: as above; settings: scale: ratio
[20] = target: HLA-A*0101 molecule, purified from cell lysates (human); assay: competition with 125I-labelled standard peptide for purified HLA-A*0101, gel filtration
[21] = target: HLA-A*6802 (human); assay: competitive inhibition of 125I-labelled standard peptide binding to purified HLA, gel filtration
[22] = target: HLA-A*0206 (human); assay: as above
[23] = target: HLA-A*0202 (human); assay: as above
[24] = target: HLA-A*0101 (human); assay: inhibition of 125I-labeled standard peptide 944.02 binding to purified HLA-A*0101, gel filtration
[25] = target: HLA-A*6802 (human); assay: inhibition of 125I-standard peptide binding to purified HLA, gel filtration
[26] = target: HLA-A*0206 (human); assay: as above
[27] = target: HLA-A*0201 (human); assay: as above
[28] = target: HLA-A*0203 (human); assay: as above
[29] = target: HLA-A*0201 (purified HLA class I molecule) (human); assay: competition with 125I-labelled standard peptide for purified HLA, gel filtration
[30] = target: HLA-A*0206 (purified HLA class I molecule) (human); assay: as above
[31] = target: HLA-A*0203 (purified HLA class I molecule) (human); assay: as above
[32] = target: HLA-A*0202 (purified HLA class I molecule) (human); assay: as above
[33] = target: HLA-A*0202 (human); assay: competition with 125I-labelled standard peptide 941.01 for purified HLA-A*0202, gel filtration
[34] = target: HLA-A*0206 (human); assay: competition with 125I-labelled standard peptide 941.01 for purified HLA-A*0206, gel filtration
[35] = target: HLA-A*0201 (human); assay: competition with 125I-labelled standard peptide 941.01 for purified HLA-A*0201, gel filtration
[36] = target: HLA-A*6802 (human); assay: competition with 125I-labelled standard peptide 1072.34 for purified HLA-A*6802, gel filtration
[37] = target: HLA-A*0203 (human); assay: competition with 125I-labelled standard peptide 941.01 for purified HLA-A*0203, gel filtration
[38] = target: HLA-A*0201 (human); assay: competition with 125I-labelled standard peptide 941.01 ([..]) for purified HLA-A*0201, gel filtration
[39] = target: HLA-A*0206 (human); assay: competition with 125I-labelled standard peptide 941.01 ([..]) for purified HLA-A*0206, gel filtration
[40] = target: HLA-A*0202 (human); assay: competition with 125I-labelled standard peptide 941.01 ([..]) for purified HLA-A*0202, gel filtration
[41] = remark: other sources report otherwise

With PAELTDAVK (modifications not checked) [… (PSA, position 125)] the binding affinity ratio [1] was 0.0002, the binding affinity ratio [2] was 0.0001 and the binding affinity ratio [3] was 0.0002. It also gave a binding affinity ratio [4] of 0.0006.

In the case of YPNKTHPNY (modifications not checked) [PSM peptide … (position 119, 9 amino acids)], the binding affinity ratio (IC50 of standard peptide / IC50 of test peptide) [5] is reported as 0.0001.

GFFLLGFLF (modifications not checked) [PSM peptide … (PSM position 31, 9 amino acids)] gave a binding affinity ratio (IC50 of the standard peptide / IC50 of the test peptide) [6] of 0.0005.

Binder PANEYAYRR (modifications not checked) [PSM 273 peptide …] has a binding affinity ratio (IC50 of the standard peptide / IC50 of the test peptide) [7] of 0.0001.

CSPSCPLER (modifications not checked) [PAP peptide … (position 347, 9 amino acids)] gave a binding affinity ratio (IC50 of standard peptide / IC50 of test peptide) [8] of 0.0006.

Work on DALFDIESK (modifications not checked) [PSM peptide … (position 710, 9 amino acids)] yielded a binding affinity ratio (IC50 of standard peptide / IC50 of test peptide) [8] of 0.0002.

ESYKHEQVY (modifications not checked) [PAP peptide … (position 95, 9 amino acids)] showed a binding affinity ratio (IC50 of standard peptide / IC50 of test peptide) [9, 41] of 0.0002.

For ETYELVEKFY (modifications not checked) [PSM peptide … (position 557, 10 amino acids)], the binding affinity ratio (IC50 of standard peptide / IC50 of test peptide) [9] was 0.0002.

With KGEYFVEMY (modifications not checked) [PAP 322 …] the binding affinity ratio (IC50 of standard peptide / IC50 of test peptide) [10, 41] was 0.0002.

Binder LAGAKGVILY (modifications not checked) [PSM 219 …] has a binding affinity ratio (IC50 of standard peptide / IC50 of test peptide) [10] of 0.0002.

PANEYAYRR (modifications not checked) [PSM.273 peptide …] showed a binding affinity ratio (IC50 of standard peptide / IC50 of test peptide) [11] of 0.0002.

For DLPTQEPALGT (modifications not checked) [… (PSA, position 136, 11 amino acids)], the binding affinity ratio [12] was 0.0001, the binding affinity ratio [13] was 0.018 and the binding affinity ratio [14, 41] was 0.01. The binding affinity ratio [15, 41] was 0.0041.

Work on DTCGGDSGGPL (modifications not checked) [… (Kallikrein, position 207, 11 amino acids)] yielded a binding affinity ratio [14] of 0.0005 and a binding affinity ratio [15] of 0.0001.

GVLVHPQWVLT (modifications not checked) [… (Kallikrein position 52 / PSA position 48, 11-mer)] showed a binding affinity ratio [16] of -0.0001, a binding affinity ratio [17] of 0.0005 and a binding affinity ratio [18] of 0.0005. It also gave a binding affinity ratio [19] of 0.0002.

In the case of GMPEGDLVY (modifications not checked) [PSM peptide … (position 168, 9 amino acids)], the binding affinity ratio (IC50 of the standard peptide / IC50 of the test peptide) [20] is reported as 0.0001.

KITDVVKV (modifications not checked) [KITDVVKV (Kallikrein, position 131)] was tested, and the binding affinity ratio (ratio to standard peptide) [21] was -0.0001, the binding affinity ratio (ratio to standard peptide) [22] was 0.0002 and the binding affinity ratio (ratio to standard peptide) [23] was 0.0002.

For PSLYTKVVHY (modifications not checked) [PSA 236 peptide …], the binding affinity ratio (IC50 of the standard peptide / IC50 of the test peptide) [24] was 0.001.

LLRLSEPAKIT (modifications not checked) [Kallikrein 123 …] was tested, and the binding affinity ratio (IC50 standard peptide / IC50 test peptide) (ratio to standard peptide) [25] was -0.0001, the binding affinity ratio (IC50 standard peptide / IC50 test peptide) (ratio to standard peptide) [26] was -0.0001 and the binding affinity ratio (IC50 standard peptide / IC50 test peptide) (ratio to standard peptide) [27] was 0.0002.

LLSNDMCA (modifications not checked) [Kallikrein 178 LLSNDMCA] was tested, and the binding affinity ratio (IC50 standard peptide / IC50 test peptide) (ratio to standard peptide) [25] was -0.0001, the binding affinity ratio (IC50 standard peptide / IC50 test peptide) (ratio to standard peptide) [28] was 0.0003 and the binding affinity ratio (IC50 standard peptide / IC50 test peptide) (ratio to standard peptide) [27] was 0.0003.

With MLCAGRWT (modifications not checked) [PSA peptide MLCAGRWT (position 192, 8 amino acids)] the binding affinity ratio (IC50 of standard peptide / IC50 of test peptide) [29] was 0.0006, the binding affinity ratio (IC50 of standard peptide / IC50 of test peptide) [30] was -0.0001 and the binding affinity ratio (IC50 of standard peptide / IC50 of test peptide) [31] was 0.0033. For the same binder, the binding affinity ratio (IC50 of standard peptide / IC50 of test peptide) [32] was 0.0012.

Work on RAVCGGVL (modifications not checked) [RAVCGGVL (PSA, position 43)] yielded a binding affinity ratio (IC50 of standard peptide / IC50 of test peptide) [33] of -0.0001, a binding affinity ratio (IC50 of standard peptide / IC50 of test peptide) [34] of -0.0001 and a binding affinity ratio (IC50 of standard peptide / IC50 of test peptide) [35] of -0.0001. The binding affinity ratio (IC50 of standard peptide / IC50 of test peptide) [36] was -0.0001 and the binding affinity ratio (IC50 of standard peptide / IC50 of test peptide) [37] was 0.0003.

Binder RAYSEKVT (modifications not checked) [RAYSEKVT (Kallikrein, position 186)] has a binding affinity ratio (IC50 of standard peptide / IC50 of test peptide) [33] of -0.0001, a binding affinity ratio (IC50 of standard peptide / IC50 of test peptide) [34] of 0.0001 and a binding affinity ratio (IC50 of standard peptide / IC50 of test peptide) [35] of -0.0001. It also gave a binding affinity ratio (IC50 of standard peptide / IC50 of test peptide) [36] of -0.0001 and a binding affinity ratio (IC50 of standard peptide / IC50 of test peptide) [37] of 0.0003.

For RLSEPAKIT (modifications not checked) [… (Kallikrein, position 125)], the binding affinity ratio (IC50 of standard peptide / IC50 of test peptide) [33] was -0.0002, the binding affinity ratio (IC50 of standard peptide / IC50 of test peptide) [34] was -0.0001 and the binding affinity ratio (IC50 of standard peptide / IC50 of test peptide) [35] was -0.0001. It also gave a binding affinity ratio (IC50 of standard peptide / IC50 of test peptide) [36] of -0.0002 and a binding affinity ratio (IC50 of standard peptide / IC50 of test peptide) [37] of 0.0009.

TTCYASGWGSI (modifications not checked) [Kallikrein (hK2) peptide … (position 150, 11 amino acids); the same letters in PSA at position 146] showed a binding affinity ratio (IC50 of standard peptide / IC50 of test peptide) [38] of -0.0001, a binding affinity ratio (IC50 of standard peptide / IC50 of test peptide) [39] of 0.0005 and a binding affinity ratio (IC50 of standard peptide / IC50 of test peptide) [40] of 0.0009.
